Test results: patent US20240166765A1, “INFLAMMATORY DISEASE TREATMENT USING ANTI-TISSUE FACTOR ANTIBODIES” (Iconic Therapeutics LLC, priority 2020, published 2024)

Columns and labels:
[1] = target: T1, human TF (TF-positive MDA-MB-231 cells) (Homo sapiens, UniProt P13726); experiment: Antibody competition assay with 25A3 on MDA-MB-231 cells; format: binding; details: 20 nM 25A3-Alexa488
T1 construct: Human TF-positive cancer cell lines A431 and MDA-MB-231; host or cells: MDA-MB-231
Method: (§1) Alexa Fluor antibodies were generated using Alexa Fluor 488 5-sulfo-[…] esters (ThermoFisher Scientific) following manufacturer's protocol. Excess Alexa Fluor dye was removed from the antibody dye conjugate preparations by gel filtration (ThermoFisher Scientific).
(§2) After another 1 hr incubation on ice, cells were washed, stained with a viability dye, and analyzed by flow cytometry. The Alexa488 fluorescence data from viable cells was summarized using median fluorescence intensity.

[2] = target: T1, human TF (TF-positive MDA-MB-231 cells); experiment: Antibody competition assay with 43D7 on MDA-MB-231 cells; format: binding; details: 20 nM 43D7-Alexa488
Method: as §1, §2

[3] = tested on: thrombin generation (relipidated TF in normal pooled plasma); experiment: Thrombin generation assay (TGA) without antibody pre-incubation; format: biochemical, human; details: Ab conc. 10 nM, Table 44
Method: (§3) The TGA assay was performed using the calibrated-automated-thrombogram (CAT) instrument manufactured and distributed by STAGO. The test method design was equivalent to a standard CAT assay measurement, except that the plasma source was NPP in citrate/CTI. […] Relipidated TF was added to a 96-well assay plate, followed by addition of the antibody/NPP mixture. After a 10-min incubation or directly after combining the relipidated TF with antibody/NPP, thrombin generation was initiated by the addition of calcium and the thrombin substrate. The STAGO software was used to report the following parameters: Peak IIa (highest thrombin concentration generated [nM]); Lag Time (time to IIa generation [min]); ETP (endogenous thrombin potential, area under the curve [nM×min]); and ttPeak (time to Peak IIa [min]).
as §3, with “was normal pooled plasma (NPP)” for “was NPP”, “in citrate supplemented with corn trypsin inhibitor (citrate/CTI).” for “in citrate/CTI.”
(§4) TGA assay was performed using the calibrated-automated-thrombogram (CAT) instrument manufactured and distributed by STAGO (Diagnostica Stago SAS, Asnieres sur Seine, France). […] The anti-TF antibodies were titrated at 0, 10, 50 and 100 nM and mixed with NPP in citrate/CTI. Relipidated TF was added to a 96-well assay plate, followed by addition of the antibody/NPP mixture. After a 10-min incubation or directly after combining the relipidated TF with antibody/NPP, thrombin generation was initiated by the addition of calcium and the thrombin substrate. The STAGO software was used to report the following parameters: Peak IIa (highest thrombin concentration generated on the thrombin generation curve [nM]); Lag Time (time from assay start to the moment 10 nM of thrombin is formed [min]); ETP (endogenous thrombin potential, area under the curve [nM×min]); and ttPeak (time from assay start to Peak IIa [min]). […] As used herein, the term “thrombin generation assay” (TGA) refers to the TGA used in this example.

[4] = tested on: thrombin generation (relipidated TF in normal pooled plasma); experiment: Thrombin generation assay (TGA) with 10 min antibody pre-incubation; format: biochemical, human; details: Ab conc. 10 nM
Method: as §3
as §3, with “was normal pooled plasma (NPP)” for “was NPP”, “in citrate supplemented with corn trypsin inhibitor (citrate/CTI).” for “in citrate/CTI.”
as §4

[5] = target: T1, human TF (TF-positive MDA-MB-231 cells); experiment: FVIIa competition assay (FVII-Fc Alexa488) on MDA-MB-231 cells; format: binding; details: highest concentration of antibody; Example 26
Method: To evaluate competition between FVIJa and the human antibodies against TF, TF-positive MIDA-MB-231 cells (ATCC, Manassas, VA, USA) were first incubated for 1 hr on ice with a titration of the human antibodies against TF. Subsequently, a final concentration of 20 nM of FVII-Fc conjugated to Alexa488 was added to the antibody cell mixture. After another 1 hr incubation on ice, cells were washed, stained with a viability dye, and analyzed by flow cytometry. The Alexa488 fluorescence data from viable cells was summarized using median fluorescence intensity.
Subsequently, FVII-Fc conjugated to Alexa488 was added to the antibody-cell mixture at a final concentration of 20 nM. After another 1 hr incubation on ice, cells were washed, stained with a viability dye, and analyzed by flow cytometry. The Alexa488 fluorescence data from viable cells was summarized using median fluorescence intensity (MFI).

[6] = target: T1, human TF (TF-positive MDA-MB-231 cells); experiment: Antibody competition assay with 39A on MDA-MB-231 cells; format: binding; details: 20 nM 39A-Alexa488
Method: as §1, §2

TF-positive A431 cells = experiment: Cytotoxicity assay of ADCs, A431 cells; format: cell-based, human; details: Primary ADC
Method: To evaluate cytotoxicity of ADCs, TF-positive A431 and HPAF-II cells were plated in 384-well plates (Greiner Bio-One, Monroe, NC, USA) at 4×10^3 cells per well in 40 μL of media. Anti-TF antibodies conjugated to MC-vc-PAB-MMAE were serially diluted starting at 5 nM. Plates were incubated for 3 to 4 days, followed by lysis in CellTiter-Glo (CTG) assay reagent (Promega, Madison, WI, USA). CTG luminescence was measured on an Envision plate reader and the mean and standard deviation of 4 replicates were graphed in Prism.
To evaluate ADC cytotoxicity, A431 cells were plated in 384-well plates (Greiner Bio-One). Anti-TF antibodies conjugated to MC-vc-PAB-MMAE were serially diluted as shown. The TF-specific ADCs were added to A431 cells, with either a 72 h incubation or a 4 h incubation followed by removal of excess ADC and culture for another 68 h. A431 cells were lysed in CTG assay reagent after treatment. CTG luminescence was measured and the mean and standard deviation of 4 replicates graphed in Prism.

TF:FVIIa = target: T2, TF:FVIIa (Homo sapiens, UniProt P13726); experiment: FXa conversion assay on MDA-MB-231 cells; format: cell-based; details: concentrations of 25, 50, and 100 nM; Example 26
T2 construct: host or cells: MDA-MB-231
T2 sequence (P13726 33-295): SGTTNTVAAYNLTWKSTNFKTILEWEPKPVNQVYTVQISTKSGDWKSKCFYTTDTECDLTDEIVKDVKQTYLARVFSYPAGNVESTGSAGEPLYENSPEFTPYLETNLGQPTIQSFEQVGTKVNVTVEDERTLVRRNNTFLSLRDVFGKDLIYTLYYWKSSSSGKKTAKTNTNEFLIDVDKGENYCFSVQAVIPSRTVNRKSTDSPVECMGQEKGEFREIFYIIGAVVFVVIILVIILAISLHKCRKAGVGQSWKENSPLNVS
Method: (§5) To evaluate the ability of TF:FVIIa to convert FX into FXa in the presence of human antibodies against TF, 5×10^4 MDA-MB-231 cells (ATCC, Manassas, VA, USA) were plated into tissue culture-treated black 96-well plates (Greiner Bio-One, Monroe, NC, USA). […] Upon reconstitution of the binary TF:FVIIa complex with a final concentration of 20 nM of FVIIa, cells were incubated for 5 min at 37° C.
as §5, with “Briefly,” for “To evaluate the ability of TF:FVIIa to convert FX into FXa in the presence of human antibodies against TF,”, “USA) and cultured overnight.” for “USA).”

T1 sequence (P13726 33-295): as above

## TF-011
[1]
  % 25A3 binding: did not reduce
[2]
  % 43D7 binding: did not reduce
[3]
  ETP: 1714 nM·min
[4]
  ETP: 792 nM·min
[5]
  competition with FVII: effectively competed with FVII
[6]
  % 39A binding: reduced
TF-positive A431 cells; 4 hr, followed by washout, FIG. 20B
  IC50: 170 pM
TF-positive A431 cells; 4 hr, followed by washout, FIG. 21A
  IC50: 90 pM
TF-positive A431 cells; Continuous treatment, FIG. 20A
  IC50: 50 pM
TF:FVIIa
  inhibited FX conversion by: 57-59%
